Patent US11390653B2, “Amino acid-specific binder and selectively identifying an amino acid” (priority 2018, dated 2022)

B1: A. tumefaciens ClpS2 [Pro34 Met35 Ser36] (protein, listed as Escherichia coli)
chain: SDSPVDLKPKPKVKPKLERPKLYKVMLLNDDYTPMSFVTVVLKAVFRMSEDTGRRVMMTAHRFGSAVVVVCERDIAETKAKEATDLGKEAGFPLMFTTEPEE
notes: ClpS2 variant, native residues 34-36 ProArgGlu mutated to ProMetSer
B2: A. tumefaciens ClpS2 [Pro34 Arg35 Glu36] (protein)
chain: MGHHHHHHENLYFQGSDSPVDLKPKPKVKPKLERPKLYKVMLLNDDYTPREFVTVVLKAVFRMSEDTGRRVMMTAHRFGSAVVVVCERDIAETKAKEATDLGKEAGFPLMFTTEPEE
notes: wild-type Agrobacterium tumefaciens ClpS2, N-End Rule Pathway adaptor protein

Key:
Assay type in all cases: binding
F1G2 peptide [1] = test: yeast/peptide colorimetric pull-down assay; details: yeast-displayed protein
Procedure: (§1) Incubation and wash steps were repeated.

F1G2 peptide [2] = test: SPR, peptide on streptavidin chip, ClpS2 variant protein in solution; details: for specificity between N-terminal Phe and Trp, in words: from SPR binding data; for KOFF Phe: from SPR dissociation curves; for Selectivity for Phe, Phe/Phe / Selectivity for Phe, Phe/Trp / Selectivity for Phe, Phe/Tyr: relative specificity factor, ratio of binding affinities; for Kd: steady state, peptide on surface, 0 to 50 μM protein, read-out: KD Phe
Procedure: (§2) With regard to surface plasmon resonance (SPR), SPR data was collected by loading a streptavidin chip with the target biotinylated peptides in each of the four channels, and then flowing the protein over the chip at each concentration for 180 seconds before washing with 50 mM Tris-HCl, pH 8.0, 300 mM NaCl, 1 mM DTT, 5% glycerol buffer for 180 seconds. […] The four channels were used such that the negative control peptide (A1G2) was in channel 1, F1G2 in channel 2, W1G2 in channel 3, and Y1G2 in channel 4. The negative control peptide channel was used as a baseline for subtraction, which accommodates both any non-specific binding and refractive index change. A steady state response at each concentration was plotted and fit to calculate the KD, while the resonance units vs. time was used to calculate a koff for each mutant protein with each peptide.
(§3) Regarding characterization of the ClpS mutant protein binding kinetics, for peptide sequencing via some recently proposed methods reagents can bind peptides affixed to a surface. Two A. tumefaciens ClpS2 protein variants (V2, described above, and V1) were expressed and purified from E. coli. […] The binding properties of each variant were analyzed using surface plasmon resonance (SPR).

Y1G2 peptide = test: as above; details: for KOFF Tyr: from SPR dissociation curves; for Selectivity for Tyr, Tyr/Phe / Selectivity for Tyr, Tyr/Trp / Selectivity for Tyr, Tyr/Tyr: relative specificity factor, ratio of binding affinities; for Kd: steady state, peptide on surface, 0 to 50 μM protein, read-out: KD Tyr
Procedure: as §2, §3

W1G2 peptide = details: for KOFF Trp: from SPR dissociation curves; for Selectivity for Trp, Trp/Phe / Selectivity for Trp, Trp/Trp / Selectivity for Trp, Trp/Tyr: relative specificity factor, ratio of binding affinities; for Kd: steady state, peptide on surface, 0 to 50 μM protein, read-out: KD Trp
Procedure: as §2, §3

Ala NAA peptide = biological target: T1, Ala NAA peptide (Agrobacterium fabrum, UniProt Q8UD95); test: yeast/peptide colorimetric pull-down assay
T1 construct: factor Xa cleavage site (N); expressed in transfected cells; host or cells: Saccharomyces cerevisiae EBY100, pCTCON2
Procedure: as §1

Ile NAA peptide = biological target: T2, Ile NAA peptide (Agrobacterium fabrum, UniProt Q8UD95); test: yeast/peptide colorimetric pull-down assay
T2 construct: factor Xa cleavage site (N); expressed in transfected cells; host or cells: Saccharomyces cerevisiae EBY100, pCTCON2
Procedure: as §1

Leu NAA peptide = test: yeast/peptide colorimetric pull-down assay; details: yeast-displayed protein
Procedure: as §1

Lys NAA peptide = biological target: T3, Lys NAA peptide (Agrobacterium fabrum, UniProt Q8UD95); test: yeast/peptide colorimetric pull-down assay; details: high concentrations used in the assay
T3 construct: factor Xa cleavage site (N); expressed in transfected cells; host or cells: Saccharomyces cerevisiae EBY100, pCTCON2
Procedure: as §1

Met NAA peptide = biological target: T4, Met NAA peptide (Agrobacterium fabrum, UniProt Q8UD95); test: yeast/peptide colorimetric pull-down assay; details: high concentrations used in the assay
T4 construct: factor Xa cleavage site (N); expressed in transfected cells; host or cells: Saccharomyces cerevisiae EBY100, pCTCON2
Procedure: as §1

Val NAA peptide = biological target: T5, Val NAA peptide (Agrobacterium fabrum, UniProt Q8UD95); test: yeast/peptide colorimetric pull-down assay
T5 construct: factor Xa cleavage site (N); expressed in transfected cells; host or cells: Saccharomyces cerevisiae EBY100, pCTCON2
Procedure: as §1

[3] = biological target: T6, full panel of 20 peptides containing different NAAs (Agrobacterium fabrum, UniProt Q8UD95); test: yeast/peptide colorimetric pull-down assay, full panel
T6 construct: factor Xa cleavage site (N); expressed in transfected cells; host or cells: Saccharomyces cerevisiae EBY100, pCTCON2
Procedure: as §1

Arg NAA peptide [4] = biological target: T7, Arg NAA peptide (Agrobacterium fabrum, UniProt Q8UD95); test: flow cytometry of yeast displaying ClpS proteins; parameters: factor Xa cleavage site (N); expressed in transfected cells
Procedure: (§4) After two rounds of MACs selection, the library was sorted by flow cytometry. […] A typical reaction contained 100 μL of cells (containing approximately 10^6 cells), 10 μL of peptide at a concentration between 10 nM to 10 μM, and 25 μL of a master mix containing 2 μL of an anti-myc antibody, 4 μL of the SAPE (streptavidin, R-phycoerythrin conjugate—1 mg/mL) and 19 μL of PBS/BSA for each sample.
(§5) Cells were washed with PBS/BSA and sorted using a FACS Aria cytometer and collected in 1 mL of SD-CAA media. The number of cells that bound the peptide improved with each round and were sorted with sequentially lower concentrations of peptide to increase the stringency of the selection. […]
(§6) With regard to directed evolution of ClpS, random mutagenesis and screening was used to select proteins with higher affinity binding to the target NAA. In subsequent steps, specific residues were determined from initial screens with a targeted mutagenesis step. […] Using FACS, we assessed the affinity of each mutant for the N-terminal amino acid on the target peptide based on which quadrant the fluorescent signal fell into as shown in FIG. 15. […] If there is also a high fluorescence signal along the x-axis (streptavidin-PE) then the peptide is presumably bound to the protein variant, and the signal will appear in Q2. […]

His NAA peptide [5] = biological target: T8, His NAA peptide (Agrobacterium fabrum, UniProt Q8UD95); test: flow cytometry of yeast displaying ClpS proteins; parameters: factor Xa cleavage site (N); expressed in transfected cells
Procedure: as §4, §5, §6

Arg NAA peptide [6] = biological target: T7, Arg NAA peptide; test: yeast/peptide colorimetric pull-down assay; parameters: factor Xa cleavage site (N); expressed in transfected cells; host or cells: Saccharomyces cerevisiae EBY100, pCTCON2; details: high concentrations used in the assay
Procedure: as §1

His NAA peptide [7] = biological target: T8, His NAA peptide; test: yeast/peptide colorimetric pull-down assay; parameters: factor Xa cleavage site (N); expressed in transfected cells; host or cells: Saccharomyces cerevisiae EBY100, pCTCON2; details: high concentrations used in the assay
Procedure: as §1

Molecule	specificity between N-terminal Phe and Trp, in words (F1G2 peptide [2])	KOFF Phe (F1G2 peptide [2])	Selectivity for Phe, Phe/Phe (F1G2 peptide [2])	Selectivity for Phe, Phe/Trp (F1G2 peptide [2])	Selectivity for Phe, Phe/Tyr (F1G2 peptide [2])	Kd (F1G2 peptide [2])	KOFF Tyr (Y1G2 peptide)	Selectivity for Tyr, Tyr/Phe (Y1G2 peptide)	Selectivity for Tyr, Tyr/Trp (Y1G2 peptide)	Selectivity for Tyr, Tyr/Tyr (Y1G2 peptide)	Kd (Y1G2 peptide)	KOFF Trp (W1G2 peptide)	Selectivity for Trp, Trp/Phe (W1G2 peptide)	Selectivity for Trp, Trp/Trp (W1G2 peptide)	Selectivity for Trp, Trp/Tyr (W1G2 peptide)	Kd (W1G2 peptide)	other results
A. tumefaciens ClpS2 [Variant V3, A. tumefaciens ClpS2 [Cys34 Ser35 Trp36]]	–	–	–	–	–	–	–	–	–	–	–	–	–	–	–	–	affinity for F1G2 peptide compared to wild-type (F1G2 peptide [1]): increased affinity; selectivity towards F1G2 peptide compared to other NAAs (F1G2 peptide [1]): higher selectivity
B1	more specific for N-terminal Trp than for Phe	0.1 s⁻¹	1.0	0.14	0.16	1.8 ± 0.4 µM	0.5 s⁻¹	6.43	0.88	1.0	11.6 ± 1.2 µM	0.76 s⁻¹	7.28	1.0	1.13	13.1 ± 1.3 µM	dissociation rate slowed over wild-type, Phe (F1G2 peptide [2]; SPR): 9.4 fold; improvement in KD/affinity for Phe peptide compared to wild-type (F1G2 peptide [2]; SPR): 7.2 fold; improvement in KD/affinity for Phe peptide compared to wild-type (F1G2 peptide [2]; SPR, listed as ProMetSer variant): 7 fold; improvement in affinity for Y1G2 compared to wild-type (Y1G2 peptide; SPR): 5.5 fold; affinity for N-terminal Trp relative to wild-type, in words (W1G2 peptide; in vitro surface binding assays / SPR): little change
B2	modest specificity for N-terminal Phe	0.93 s⁻¹	1.0	0.71	0.21	13 ± 0.6 µM	1.16 s⁻¹	4.86	3.43	1.0	63 ± 4 µM	1.32 s⁻¹	1.42	1.0	0.29	18.4 ± 0.4 µM	binding to Ala (Ala NAA peptide): lack of binding; binding to Ile (Ile NAA peptide): does bind; binding to Leu (Leu NAA peptide): does not bind; binding to Lys (Lys NAA peptide): some binding activity; binding to Met (Met NAA peptide): some binding activity; binding to Val (Val NAA peptide): lack of binding; binding to the remaining amino acids [3]: non-binding; binding to Arg (Arg NAA peptide [4]): confirmed; binding to His (His NAA peptide [5]): confirmed; binding to Arg (Arg NAA peptide [6]): some binding activity; binding to His (His NAA peptide [7]): some binding activity
